According to patent US20250122482A1:

Target: mouse-TfR Fab (8D3) fused to SpyCatcher
Assay: cell-based or functional assay

soluble SpyTag peptide (peptide; modification not given; by the resolver: SpyCatcher is fused to one Fab chain and forms an isopeptide bond with SpyTag, whether soluble or on the capsid)
cross conjugation signal (luciferase, transduction assay on mTfR+HEK293) (log reduction): 2
